Experimental data taken from patent US9850300B2, “Compositions and methods relating to inhibiting cancer cell growth and/or proliferation” (The Regents of the University of Michigan, priority 2013, dated 2017).
Entries after “also recorded” stand apart in the source; their conditions may differ.

Key:
Format in all cases: cell-based
[1] = system: SKOV3, OVCAR3, OVCAR8, and primary ovarian tumor cells; assay: EGFL6 treatment of ovarian cancer cells, total cell number
Description: EGFL6 was next expressed in HEK293 cells, NIH3T3 cells, and SKOV3 ovarian cancer cells. Western blot analysis confirmed secretion of EGLF6 in both transient and stable transfectants (FIG. 2Ai, 2D) from all three cell lines. EGFL6 protein was purified to >95% purity (FIG. 2Aii) and treated ovarian cancer cells with either purified EGFL6, supernatant from EGFL6-expressing HEK293 cells, or supernatant from control transfected HEK293 cells. Purified fusion protein and supernatant from EGFL6 transfected cells had similar effects. EGFL6 treatment of SKOV3, OVCAR3, OVCAR8, and primary ovarian tumor cells was associated with a 30-40% increase in total cell number (FIG. 2B).
SKOV3, A2008, and A2780 were maintained in RPMI-1640, supplemented with 10% FBS with 1% Penicillin/Streptomycin, and cultured in humidified atmosphere of 5% CO2 at 37° C. For all in vitro cell culture experiments, isolated cells were allow to recover overnight following FACS, prior to treatment. Infantile Hemangioma Stem cells were maintained in EBM-2 medium with growth factor supplement cocktails in culture plates coated with fibronectin. For Echistatin and EGFL6 treatment, cells were pretreated with Echistatin (Sigma, 100 nM) for 24 hours prior to EGFL6 treatment. All transfections were performed using FuGene6 reagent (Promega) per company protocol. […]

[2] = system: SKOV3 cells; assay: Cell cycle analysis (propidium iodine, FACS); settings: EGFL6 treatment 24 hrs after serum starvation
Protocol: SKOV3 cells were seeded at 5×10^5 in 6 cm culture plates, synchronized by serum starvation for 24 hrs, then treated with EGFL6 or control for 24 hrs. Cells were fixed with ice-cold alcohol, washed with PBS, and stained with propidium iodine ([…]) and RNase A (100 ug/ml) in PBS for 1 hr at 30° C. Cell cycle profile was acquired by FACS analysis and data were analyzed by Flowjo.

[3] = system: Human ovarian cancer ascites cells; assay: Tumor sphere assay, ALDH+ cell percentages; settings: EGFL6 treatment
Description: It has been shown that aldehyde dehydrogenase enzymatic activity (ALDH) is an excellent marker of ovarian CSCs in SKOV3 cells and primary patient samples (see, e.g., Silva, I. A., et al. Cancer Res (2011); Landen, C. N., Jr., et al. Mol Cancer Ther 9, 3186-3199 (2010); Steg, A. D., et al. Clin Cancer Res 18, 869-881 (2012); Kryczek, I., et al. Int J Cancer 130, 29-39 (2012); Deng, S., et al. PLoS ONE 5, e10277 (2010)). The impact of EGFL6 treatment on the percentage of ALDH^+ CSCs in vitro was next assessed. […] However, given the increase in total cell numbers, the absolute ALDH^+ CSC number remained unchanged (FIG. 3Aiii). […] Human ovarian cancer ascites cells were also treated with EGFL6 in a tumor sphere assay. Once again, treatment with EGLF6 was associated with a reduction in ALDH^+ cell percentages in tumor spheres (FIG. 3B).
Sphere culture was performed as previously described (see, e.g., Silva, I. A., et al. Cancer Res (2011)). Briefly, single cell suspensions were plated in triplicate in ultra-low attachment plates (Corning, Acton, Mass., USA) in serum-free MEBM-2 (Lonza). Cells were plated at the indicated density and from 1,000-10,000 cells/ml in subsequent passage. Sphere formation was assessed 2 weeks after seeding cells.

[4] = system: cellular migration; assay: In vitro scratch test wound healing assay; settings: EGFL6 treated cells
[5] = system: phosphorylation of SHP2, ERK, FAK and SRC in SKOV3 cells; assay: Western blot of EGFL6 mediated signal activation
Protocol: Lastly, EGFL6 mediated signal activation was evaluated. Integrin signaling has been reported to induce the […] of FAK, SRC and SHP2 among others. […] Phosphorylation of all of these proteins could be blocked with Echistatin.
Cellular signaling changes associated with EGFL6 was next examined. […] EGFL6 treatment was associated with increased p-SHP2 levels specifically in ALDH^+ cells (FIG. 4Ei). […] SHP2 phosphorylation could be blocked with Echistatin (FIG. 4Eiii) or an EGFL6-blocking antibody. SHP2 phosphorylation was associated with increased p-ERK levels (4Ei-iii).
SKOV3, A2008, and A2780 were maintained in RPMI-1640, supplemented with 10% FBS with 1% Penicillin/Streptomycin, and cultured in humidified atmosphere of 5% CO2 at 37° C. For all in vitro cell culture experiments, isolated cells were allow to recover overnight following FACS, prior to treatment. Infantile Hemangioma Stem cells were maintained in EBM-2 medium with growth factor supplement cocktails in culture plates coated with fibronectin. For Echistatin and EGFL6 treatment, cells were pretreated with Echistatin (Sigma, 100 nM) for 24 hours prior to EGFL6 treatment. All transfections were performed using FuGene6 reagent (Promega) per company protocol.
EGFL6 monoclonal antibody producing hybridoma cells were maintained in RPMI medium supplemented with 10% FBS. For antibody purification, the cells were cultured in reduced FBS (5%). Culture supernatant was collected and cell debris was removed by centrifugation. EGFL6 antibody was pulled down using Protein G Agarose heeds, Fast Flow (Millipore), washed and eluded with 50 mM glycine PH.2.7. Antibody solution was immediately neutralized to PH 7.2-7.4 with Tris (Ph 9.0, final concentration 25 mM). NaCl was added to final concentration of 150 mM. EGFL6 antibody was applied at 5 μg/ml for in vitro cell treatment and 50 μg/mouse for in vivo treatment.

[6] = system: ALDH+ and ALDH− cells; assay: Microfluidics device migration of individual cells in an EGFL6 gradient
Description: EGF factors have been reported to enhance the migration and invasion of various cell populations. The impact of EGFL6 on cellular migration was therefore assessed. […] Finally, a novel microfluidics device was used to determine the impact of EGFL6 on the migration of individual cells. To more specifically assess the impact on ovarian CSC versus progenitors, ALDH+ and ALDH− cells were sorted and loaded into individual channels of a microfluidics device in which migration could be directly monitored. EGFL6 was added to a reservoir at one side of the device to create a gradient of expression. EGFL6 had no impact on the migration of ALDH(−) cells.

[7] = system: cellular migration; assay: Transwell migration assay with EGFL6 protein as chemoattractant

B1: EGFL6: recombinant EGFL6-flag protein from transfected HEK293 cells, used purified or as 72 hr supernatant (protein)
chain: NAASARHHGLLASARQPGVCHYGTKLACCYGWRRNSKGVCEATCEPGCKFGECVGPNKCRCFPGYTGKTCSQDVNECGMKPRPCQHRCVNTHGSYKCFCLSGHMLMPDATCVNSRTCAMINCQYSCEDTEEGPQCLCPSSGLRLAPNGRDCLDIDECASGKVICPYNRRCVNTFGSYYCKCHIGFELQYISGRYDCIDINECTMDSHTCSHHANCFNTQGSFKCKCKQGYKGNGLRCSAIPENSVKEVLRAPGTIKDRIKKLLAHKNSMKKKAKIKNVTPEPTRTPTPKVNLQPFNYEEIVSRGGNSHGGKKGNEEKMKEGLEDEKREEKALKNDIEERSLRGDVFFPKVNEAGEFGLILVQRKALTSKLEHKDLNISVDCSFNHGICDWKQDREDDFDWNPADRDNAIGFYMAVPALAGHKKDIGRLKLLLPDLQPQSNFCLLFDYRLAGDKVGKLRVFVKNSNNALAWEKTTSEDEKWKTGKIQLYQGTDATKSIIFEAERGKGKTGEIAVDGVLLVSGLCPDSLLSVDD
For B1, the “increase in total cell number” value ([1]; EGFL6 treatment vs control supernatant) was 30-40%, the total cell numbers ([1]; increasing concentrations of EGFL6) was “increasing total cell numbers” and the “decrease in the number of cells in G1 phase” value [2] was roughly 20%. The “number of cells in S and G2/M phases” value [2] was “concomitant increase”, the “ALDH+ cell percentages in tumor spheres” value [3] was “reduction” and the “increase in the rate of wound closure” value [4] was 40%. For the same molecule, the p-FAK levels ([5]; EGFL6 treated SKOV3 cells) was “modest increase”, the p-SRC levels ([5]; EGFL6 treated SKOV3 cells) was “modest increase” and the p-SHP2 levels ([5]; treatment of ALDH+ SKOV3 cells) was “further increase; also recorded: increased”. The p-ERK levels ([5]; treatment of ALDH+ and ALDH(−) cells) was “increase p-ERK”, the “migration of ALDH(−) cells” value [6] was “no impact” and the “migration of ALDH+ cells” value [6] was “robust migration”. The “cellular migration in transwell assay” value [7] was “increased cellular migration”.
